# B1: LINE1-mini (parent)
# chain: GGCAGAGCUCAACACAGCGUGGCAAAGUGGCUGUGGCUAGACUGCC
# Variants of: B1
# Experiment: self-cleavage, relative activity (ratio to wild type); higher = more cleavage; in vitro, sequencing; the parent is a self-cleaving ribozyme
row,Variant,self-cleavage
1,GGCAGAGCUCAACACAGCGUGGCAAUGUGGCUGUGGCUAGUCUGCC,0.75
2,GGCAGAGCUCAACACGGCGUGGCAAAGUGGCUGGGGCUAGACUGCC,0.08
3,GGCAGUGCUCAACACAGCGUGGCAAAGUGGCUGUGGCUAGUCUGCC,0.09
4,GGCAGAGCUCAACACAGCGUGGCAAAGUGGCUGUGGCUAGUGUGCC,0.07
5,GGCAGAGCUCAUCACCGCGUGGCAAAGUGGCUGUGGCUAGACUGCC,0.05
6,GGCAGAGAACAACACAGCGUGGCAAAGUGGCUGUGGCUAGACUGCC,0.24
7,GGCAGAGCUCAACACAGGGUGGCAAUGUGGCUGUGGCUAGACUGCC,0.42
8,GGCAGCGCUCAACACAGCGUGGCAAAGUGGCUGUGGCUAAACUGCC,0.11
9,GGCAGAGCUCAACACAGCAUGGCAAAGUGGCUGUGGCUAGACUGUC,1.74
10,GGCAGAGCUCAACACAGCGUGGCAAAGUUGCUGUGGCUCGACUGCC,0.21
11,GGCAGAGCUCAACACAGCGUGGCAAAGUGGCUGGGGCUAGACUUCC,0.07
12,GGCAGAGCUCAACACAGCGUGGCAAAGUGGCUGUGGCCCGACUGCC,0.1
13,GGCAGAGCUCAAUACAGCGUGGCAAAGUGGAUGUGGCUAGACUGCC,0.05
14,GGCAGAGCUCAACACAGCGGGGCAAAGAGGCUGUGGCUAGACUGCC,0.17
15,GGCAGAGCUCAACACAGCGUGGUAAAGUCGCUGUGGCUAGACUGCC,0.52
16,GGCAGAGCUCAACACAGCGUGGCAAAGUGGCUGGGGCUUGACUGCC,0.09
17,GGCAGAGCUCAGCACAGCGUGGCAAAGUUGCUGUGGCUAGACUGCC,0.02
18,GGGAGAGCUCAAAACAGCGUGGCAAAGUGGCUGUGGCUAGACUGCC,0.48
19,GACAGAGCUCAACACAGCCUGGCAAAGUGGCUGUGGCUAGACUGCC,0.19

row,Variant,self-cleavage
1,GGCAAAGCUCCACACAGCGUGGCAAAGUGGCUGUGGCUAGACUGCC,0.03
2,GGCAGAGCUCAAUACAGCGUGGCAAAGUUGCUGUGGCUAGACUGCC,0.21
3,GGCAGAGCUCAACACAGGGUGGCAAAGAGGCUGUGGCUAGACUGCC,0.39
4,GGCAGAGCUCAACACAGCGUGACAAAGUGGCUGUUGCUAGACUGCC,0.14
5,GGCAGAGCUCAACACAGCGUGGGAAAGUAGCUGUGGCUAGACUGCC,1.01
6,GGCAGAGCUCAACACAUCGUGCCAAAGUGGCUGUGGCUAGACUGCC,0.61
7,GGCAGAGCUCAACACAGCGUGCCAAAGUGGCUGUGGCUAGAGUGCC,0.03
8,GGCAGAACUCAACACAGCGUGGCAAAGUGGCUGUGGCUAGACUACC,0.19
9,GGAAGAGCUCAACACAGCGUGGCAAAGUGGCUGUGGCUAGACUCCC,0.86
10,GGCAGAGCUCAACACAGCCUGGCAAAGUGGCUGUGGCUAGACUGGC,0.17
11,GGCAGAGCUCAACACAGCGCGGCAAAGUGGCUGUGGCUAGACUGCC,0.66
12,GGCAGAGCUCAACACAGUGUGGCCAAGUGGCUGUGGCUAGACUGCC,0.39
13,GGCAGAGCUCAACACAGCGUAGCAAGGUGGCUGUGGCUAGACUGCC,1.94
14,GGCAGAGCUCAACACAGCGCGGCAAAGUGGCUGUGGCUAGACUGGC,0.3
15,GGCAGAGCUCAAAACAGCGUGGCGAAGUGGCUGUGGCUAGACUGCC,0.11
16,GGCAGAGCUCAAUACGGCGUGGCAAAGUGGCUGUGGCUAGACUGCC,0.09
17,GGCAGAGCUCAACACAGCGUGGCAAAGUGGCUGUGGCAAGACUGCC,0.47
18,GGCAGAGAUCAACACAGCGUGCCAAAGUGGCUGUGGCUAGACUGCC,0.17
19,GGCAGAGCUCAACACAGCGUGGCAAGGUGGCUGUGGCUAAACUGCC,0.14

row,Variant,self-cleavage
1,GGCAGAGCUCAACACAGCGUGGCAGAGUGGCUAUGGCUAGACUGCC,0.04
2,GGCAGAGCUCAACACAGCGUGGUAAAGUGCCUGUGGCUAGACUGCC,2.32
3,GGCAGAGCUCAACACUGCGUGUCAAAGUGGCUGUGGCUAGACUGCC,0.42
4,GGCAGAGCUCAACACAGCGUGGCGAAGUGGCUGUGGCUUGACUGCC,1.31
5,UGCAGACCUCAACACAGCGUGGCAAAGUGGCUGUGGCUAGACUGCC,0.12
6,GGCAGAGCUCAACCCAGCGUGGUAAAGUGGCUGUGGCUAGACUGCC,0.12
7,GGCGGAACUCAACACAGCGUGGCAAAGUGGCUGUGGCUAGACUGCC,0.25
8,GGCAGAGCUCAACACAGCGUGGCAAAGUGGAUGUGGAUAGACUGCC,0.08
9,GGCAGAGCUCAACACACCGUGGCAAAGUGGCUGUGGCUAGACUGCU,0.5
10,GGCAGAGUUCAACACAGCGUGGCAAAGUGGCUGUCGCUAGACUGCC,0.09
11,GGCAGAGCUCAACACAGCGUGGCAAAGUCGCUGUGCCUAGACUGCC,0.05
12,GGCAGAGCUCAACAAAGCGUUGCAAAGUGGCUGUGGCUAGACUGCC,0.12
13,GGCAGAGCUCGACACAGCGUGGCAAAGUGGCCGUGGCUAGACUGCC,0.04
14,GGCAGAGCUGAACACAGCGUGGCAAAGUGGCUGCGGCUAGACUGCC,0.04
15,GGCCGAGCUCAACACAGCGUGGCAAAGUGGGUGUGGCUAGACUGCC,0.06
16,GGCAGAGCUCAACACAGCGUGGUAAAGUGGCUGUUGCUAGACUGCC,0.16
17,GGCAGAGCUCAACAAAACGUGGCAAAGUGGCUGUGGCUAGACUGCC,0.14
18,GGCAGAGCUCAACACAGAGUGGCAAAGUGGCUGUGACUAGACUGCC,0.13
